Here are results for 1 substance from patent US20100022459A1.

The assay has as its target β-amyloid1-42 (UniProt P05067). Description: cell-based or functional assay.

D-Trp-Aib (peptide) came in with an amount of globulomers (densitometry of the 6E10 western blot) (% of the control) of 45.
